These results are taken from US20120039908A1 (TRANSTECH PHARMA, published 2012).

The target in experiment [1] is T1, S100b protein (Cat. No. 559290, Calbiochem).
T1 construct: Coated on the ELISA plate at 20 µg/mL in TBS pH 8.0 with 5 mM CaCl2; also called RAGE ligand S100b
T1 sequence (P04271 2-92, species assumed, looked up): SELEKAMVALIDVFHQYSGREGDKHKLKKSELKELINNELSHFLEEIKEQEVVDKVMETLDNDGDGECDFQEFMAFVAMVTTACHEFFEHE
The experiment can be described thus: ELISA, S100b coated on plate; reference S1 control. The method, then:
(§1) S100b binding ELISA: An ELISA assay plate was coated with 100 μL/well of 20 μg/mL S100b protein (Cat. No. 559290, Calbiochem, Gibbstown, N.J.) in coating buffer (Tris buffered saline [TBS], pH8.0, with 5 mM CaCl₂) overnight at 4° C. The plate was then washed three times with blocking buffer (TBS pH8.0, with 5 mM CaCl₂, 0.05% Tween20, and 1% bovine serum albumin [BSA]), and blocked with the blocking buffer for 1-1.5 hr. sRAGE-Ig fusion samples were prepared in a separate dilution plate, the highest concentration was 10 μg/mL in blocking buffer, with 1:4 serial dilution in blocking buffer down to 2.4 ng/mL. After blocking, the assay plate was washed with the blocking buffer and 100 μL of the samples were transferred from the dilution plate to the assay plate. The assay plate was incubated at room temperature for 2.5 hr. The assay plate was then washed three times with the blocking buffer, with 1 min soaking time between the washes. The horseradish peroxidase conjugated goat anti-human IgG (Cat. No. A2290, Sigma, St. Louis, Mo.) was added to the plate with 100 μL/well at 1:2500 dilution in the blocking buffer. The plate was incubated for 1 hr at room temperature. The assay plate was then washed three times with the blocking buffer again, and 100 μL 3,3′,5,5′-tetramethylbenzidine (TMB; Cat. No. 34022, Pierce, Rockford, Ill.) was added to each well and the plate was incubated for 8 minutes at room temperature. 100 μL of 1M H₂SO₄ was then added to each well, the plate was shaken and read at 450 nm on a microplate reader.

In experiment [2] the target is T2, Abeta (human Aβ peptide; Aβ1-40 or Aβ1-28, Table 5 does not say which) (human, UniProt P05067 672-711).
T2 construct: Coated on the ELISA plate at 20 µg/mL in 1% NH4OH; also called A-beta peptide; amyloid beta
T2 sequence (P05067 672-711 limits assumed): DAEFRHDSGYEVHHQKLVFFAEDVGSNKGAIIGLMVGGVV
The experiment in a line: ELISA, Abeta peptide coated on plate; reference S1 control. Here is the method:
(§2) Assay for A3 peptide binding activities: Briefly, two human Aβ peptides were tested: Aβ1-40 (Catalogue# A-1153-2, Rpeptide), and Aβ1-28 (Catalogue#24232, AnaSpec). The plates were coated by 20 μg/mL peptide in 1% NH₄OH overnight at 4° C. The plate was then washed with blocking buffer (TBS pH8.0, 0.05% Tween20, and 1% BSA) and blocked for 1 hr at room temperature. All the other steps were performed essentially as described previously herein for S100b binding assay, supra.
Background: ELISA stands for enzyme-linked immunosorbent assay.

For experiment [3], the target named is T1, S100b protein (Cat. No. 559290, …). The experiment in a line: ELISA, S100b coated on plate, sRAGE-Ig titrated, anti-human IgG-HRP. Here is the method: as §1
Experiment [4] addresses T2, Abeta (human Aβ peptide; Aβ1-40 or …). The experiment can be described thus: ELISA, Abeta peptide coated on plate, sRAGE-Ig titrated, anti-human IgG-HRP. Here is the method:
as §2

Experiment [5] has as its target T1, S100b protein (Cat. No. 559290, …). The experiment can be described thus: ELISA, S100b coated on plate; reference S1. The method, then:
as §1, with “The assay plate was then washed three times with the blocking buffer again, and 100 μL 3,3′,5,5′-tetramethylbenzidine (TMB; Cat. No. 34022, Pierce, Rockford, Ill.) was added to each well and the plate was incubated for 8 minutes at room temperature.” left out

Experiment [6] has the same target. The experiment can be described thus: ELISA, S100b coated on plate; reference S1F1. The method, then:
as §1, with “The assay plate was then washed three times with the blocking buffer again, and 100 μL 3,3′,5,5′-tetramethylbenzidine (TMB; Cat. No. 34022, Pierce, Rockford, Ill.) was added to each well and the plate was incubated for 8 minutes at room temperature.” left out

Experiment [7] concerns the target T2, Abeta (human Aβ peptide; Aβ1-40 or …). The experiment can be described thus: ELISA, Abeta peptide coated on plate; reference S1. Here is the method: as §2
For experiment [8] the target is unchanged. The experiment in a line: ELISA, Abeta peptide coated on plate; reference S2F1. Here is the method:
as §2

Where “and” joins values, the source holds several entries; their conditions need not be identical. Equal values may be shown once.

B1: sRAGE-Ig fusion protein, sample S1 (control, from untreated CHO cells, unfractionated) (Fc fusion)
chain: QNITARIGEPLVLKCKGAPKKPPQRLEWKLNTGRTEAWKVLSPQGGGPWDSVARVLPNGSLFLPAVGIQDEGIFRCQAMNRNGKETKSNYRVRVYQIPGKPEIVDSASELTAGVPNKVGTCVSEGSYPAGTLSWHLDGKPLVPNEKGVSVKEQTRRHPETGLFTLQSELMVTPAPGGDPRPTFSCSFSPGLPRHRALRTAPIQPRVWEPVPLEEVQLVVEPEGGAVAPPSVFLFPPKPKDTLMISRTPEVTCVVVDVSHEDPEVKFNWYVDGVEVHNAKTKPREEQYNSTYRVVSVLTVLHQDWLNGKEYKCKVSNKALPAPIEKTISKAKGQPREPQVYTLPPSRDELTKNQVSLTCLVKGFYPSDIAVEWESNGQPENNYKTTPPVLDSDGPFFLYSKLTVDKSRWQQGNVFSCSVMHEALHNHYTQKSLSLSPGK
modifications: N-terminal Gln1 cyclized to pyroglutamic acid (pE1); N-linked glycan sites N2, N58, N288 (numbering without the signal): mixture 3-Glycan = 67%, 2-Glycan = 22%
notes: Mostly a non-covalent homodimer (about 78%), with about 19% heterodimer with a furin-cleaved Fc fragment; C-terminal Lys438 partly clipped; also called S1 = control (untreated); sRAGE-Fc
B1: the “Relative binding compared to control” value in experiment [1] and in experiment [2] was 100% each time. In addition, the IC50 in experiment [3] was 0.18 µg/mL and 1.8 nM; in experiment [4], 1.24 nM.

B2: sRAGE-Ig fusion protein, sample 1 fraction 2 (S1F2), 2-glycan species from untreated CHO cells (Fc fusion)
chain: QNITARIGEPLVLKCKGAPKKPPQRLEWKLNTGRTEAWKVLSPQGGGPWDSVARVLPNGSLFLPAVGIQDEGIFRCQAMNRNGKETKSNYRVRVYQIPGKPEIVDSASELTAGVPNKVGTCVSEGSYPAGTLSWHLDGKPLVPNEKGVSVKEQTRRHPETGLFTLQSELMVTPAPGGDPRPTFSCSFSPGLPRHRALRTAPIQPRVWEPVPLEEVQLVVEPEGGAVAPPSVFLFPPKPKDTLMISRTPEVTCVVVDVSHEDPEVKFNWYVDGVEVHNAKTKPREEQYNSTYRVVSVLTVLHQDWLNGKEYKCKVSNKALPAPIEKTISKAKGQPREPQVYTLPPSRDELTKNQVSLTCLVKGFYPSDIAVEWESNGQPENNYKTTPPVLDSDGPFFLYSKLTVDKSRWQQGNVFSCSVMHEALHNHYTQKSLSLSPGK
modifications: pE1; two of the three N-linked sites (N2, N58, N288) occupied; the filing cannot tell which
notes: RP-HPLC fraction; also called 2-Glycan only
As for B2, the IC50 is 0.104 µg/mL and 1.04 nM in experiment [3]; 0.73 nM in experiment [4].

B3: sRAGE-Ig fusion protein, sample 1 fraction 1 (S1F1), 3-glycan species from untreated CHO cells (Fc fusion)
chain: QNITARIGEPLVLKCKGAPKKPPQRLEWKLNTGRTEAWKVLSPQGGGPWDSVARVLPNGSLFLPAVGIQDEGIFRCQAMNRNGKETKSNYRVRVYQIPGKPEIVDSASELTAGVPNKVGTCVSEGSYPAGTLSWHLDGKPLVPNEKGVSVKEQTRRHPETGLFTLQSELMVTPAPGGDPRPTFSCSFSPGLPRHRALRTAPIQPRVWEPVPLEEVQLVVEPEGGAVAPPSVFLFPPKPKDTLMISRTPEVTCVVVDVSHEDPEVKFNWYVDGVEVHNAKTKPREEQYNSTYRVVSVLTVLHQDWLNGKEYKCKVSNKALPAPIEKTISKAKGQPREPQVYTLPPSRDELTKNQVSLTCLVKGFYPSDIAVEWESNGQPENNYKTTPPVLDSDGPFFLYSKLTVDKSRWQQGNVFSCSVMHEALHNHYTQKSLSLSPGK
modifications: pE1; N-linked glycans at all three sites N2, N58, N288 (3-glycan only)
notes: RP-HPLC fraction exchanged into a stabilizing buffer before the ELISA; also called 3-Glycan only; fully occupied 3-glycan version
On to B3, for which the IC50 in experiment [3] was 0.39 µg/mL and 3.9 nM; in experiment [4] it was 1.21 nM.

B4: sRAGE-Ig fusion protein, sample 2 fraction 2 (S2F2), 2-glycan species from tunicamycin treated CHO cells (Fc fusion)
chain: QNITARIGEPLVLKCKGAPKKPPQRLEWKLNTGRTEAWKVLSPQGGGPWDSVARVLPNGSLFLPAVGIQDEGIFRCQAMNRNGKETKSNYRVRVYQIPGKPEIVDSASELTAGVPNKVGTCVSEGSYPAGTLSWHLDGKPLVPNEKGVSVKEQTRRHPETGLFTLQSELMVTPAPGGDPRPTFSCSFSPGLPRHRALRTAPIQPRVWEPVPLEEVQLVVEPEGGAVAPPSVFLFPPKPKDTLMISRTPEVTCVVVDVSHEDPEVKFNWYVDGVEVHNAKTKPREEQYNSTYRVVSVLTVLHQDWLNGKEYKCKVSNKALPAPIEKTISKAKGQPREPQVYTLPPSRDELTKNQVSLTCLVKGFYPSDIAVEWESNGQPENNYKTTPPVLDSDGPFFLYSKLTVDKSRWQQGNVFSCSVMHEALHNHYTQKSLSLSPGK
modifications: pE1; two of the three N-linked sites (N2, N58, N288) occupied; the filing cannot tell which
notes: RP-HPLC fraction; also called 2-Glycan only; doubly occupied variant
Turning to B4, the half-inhibitory concentration (IC50) in experiment [3] is 0.1 µg/mL and 1 nM; in experiment [4], 0.52 nM.

B5: sRAGE-Ig fusion protein, sample 2 fraction 1 (S2F1), 3-glycan species from tunicamycin treated CHO cells (Fc fusion)
chain: QNITARIGEPLVLKCKGAPKKPPQRLEWKLNTGRTEAWKVLSPQGGGPWDSVARVLPNGSLFLPAVGIQDEGIFRCQAMNRNGKETKSNYRVRVYQIPGKPEIVDSASELTAGVPNKVGTCVSEGSYPAGTLSWHLDGKPLVPNEKGVSVKEQTRRHPETGLFTLQSELMVTPAPGGDPRPTFSCSFSPGLPRHRALRTAPIQPRVWEPVPLEEVQLVVEPEGGAVAPPSVFLFPPKPKDTLMISRTPEVTCVVVDVSHEDPEVKFNWYVDGVEVHNAKTKPREEQYNSTYRVVSVLTVLHQDWLNGKEYKCKVSNKALPAPIEKTISKAKGQPREPQVYTLPPSRDELTKNQVSLTCLVKGFYPSDIAVEWESNGQPENNYKTTPPVLDSDGPFFLYSKLTVDKSRWQQGNVFSCSVMHEALHNHYTQKSLSLSPGK
modifications: pE1; N-linked glycans at all three sites N2, N58, N288 (3-glycan only)
notes: RP-HPLC fraction; also called 3-Glycan only
On to B5, for which the IC50 was 0.89 µg/mL and 8.9 nM in experiment [3]; 2.51 nM in experiment [4].

B6: sRAGE-Ig fusion protein, sample 2 fraction 3 (S2F3), 0-glycan (aglycosylated) species from tunicamycin treated CHO cells (Fc fusion)
chain: QNITARIGEPLVLKCKGAPKKPPQRLEWKLNTGRTEAWKVLSPQGGGPWDSVARVLPNGSLFLPAVGIQDEGIFRCQAMNRNGKETKSNYRVRVYQIPGKPEIVDSASELTAGVPNKVGTCVSEGSYPAGTLSWHLDGKPLVPNEKGVSVKEQTRRHPETGLFTLQSELMVTPAPGGDPRPTFSCSFSPGLPRHRALRTAPIQPRVWEPVPLEEVQLVVEPEGGAVAPPSVFLFPPKPKDTLMISRTPEVTCVVVDVSHEDPEVKFNWYVDGVEVHNAKTKPREEQYNSTYRVVSVLTVLHQDWLNGKEYKCKVSNKALPAPIEKTISKAKGQPREPQVYTLPPSRDELTKNQVSLTCLVKGFYPSDIAVEWESNGQPENNYKTTPPVLDSDGPFFLYSKLTVDKSRWQQGNVFSCSVMHEALHNHYTQKSLSLSPGK
modifications: pyroglutamic acid (pE) at the N-terminus; no glycan at N2, N58 or N288; mixture with or without C-terminal lysine
notes: RP-HPLC fraction; its mass agrees with the theoretical mass of the unglycosylated fusion protein; also called 0-Glycan only; aglycosylated variant
With B6, the “fold increase in binding compared to S1 control” value in experiment [5] came out at 5 fold; in experiment [7], 3 fold. In addition, the “fold increase in binding compared to 3-glycan S1F1” value in experiment [6] came to 10 fold. Moreover, the “fold increase in binding compared to 3-glycan S2F1” value in experiment [8] amounted to 6 fold. Besides, the “Relative binding compared to control” value in experiment [1] worked out at 529%; in experiment [2], 295%. Further, the IC50 in experiment [3] is 0.034 µg/mL and 0.34 nM; in experiment [4], 0.42 nM.

B7: sRAGE-Ig fusion protein, sample S2 (from CHO cells treated with tunicamycin, unfractionated) (Fc fusion)
chain: QNITARIGEPLVLKCKGAPKKPPQRLEWKLNTGRTEAWKVLSPQGGGPWDSVARVLPNGSLFLPAVGIQDEGIFRCQAMNRNGKETKSNYRVRVYQIPGKPEIVDSASELTAGVPNKVGTCVSEGSYPAGTLSWHLDGKPLVPNEKGVSVKEQTRRHPETGLFTLQSELMVTPAPGGDPRPTFSCSFSPGLPRHRALRTAPIQPRVWEPVPLEEVQLVVEPEGGAVAPPSVFLFPPKPKDTLMISRTPEVTCVVVDVSHEDPEVKFNWYVDGVEVHNAKTKPREEQYNSTYRVVSVLTVLHQDWLNGKEYKCKVSNKALPAPIEKTISKAKGQPREPQVYTLPPSRDELTKNQVSLTCLVKGFYPSDIAVEWESNGQPENNYKTTPPVLDSDGPFFLYSKLTVDKSRWQQGNVFSCSVMHEALHNHYTQKSLSLSPGK
modifications: pE1; N-linked sites N2, N58, N288: mixture 3-Glycan = 42%, 2-Glycan = 16%, 0-Glycan = 31%
notes: Cells treated with 5 µg/mL tunicamycin for 3 days; also called S2 = TMYCN (treated with tunicamycin)
On to B7, for which the entries for the “fold binding relative to sample S1” value in experiment [5] and in experiment [7] were about 3 fold and about 1.5 fold, respectively. Further, the entries for the “Relative binding compared to control” value in experiment [1] and in experiment [2] were 295% and 151%, respectively. Moreover, the IC50 was 0.061 µg/mL and 0.61 nM in experiment [3]; 0.82 nM in experiment [4].

The term IC50 denotes the concentration needed to halve the response being measured. Read a high IC50 as weaker potency in that assay.
